Patent publication US20240192215A1

Experiments:
TRX-N-His-M4 (human) = TRX-N-His-M4 (human) (UniProt P10599); experiment: ELISA, mutant M4 coated at 2 ug/mL, antibody concentration not given, anti-mouse Fc-HRP (Example 16)
TRX-N-His-M2 (human) = TRX-N-His-M2 (human) (UniProt P10599); experiment: ELISA, mutant M2 coated at 2 ug/mL, antibody concentration not given, anti-mouse Fc-HRP (Example 16)
Peptide_097 (human) [1] = target: T1, Peptide_097 (human); experiment: peptide microarray, head 0.08 ug (text 0.008 ug/mL)
T1 sequence (peptide): FKKGQKVGEFSGANK

Peptide_044 (human) [2] = target: T2, Peptide_044 (human); experiment: as above
T2 sequence (peptide): FSATWCGPCKMIKPF

Peptide_096 (human) [3] = target: T3, Peptide_096 (human); experiment: as above
T3 sequence (peptide): FFKKGQKVGEFSGAN

M7 = target: T4, M7; experiment: ELISA, mutant M7 coated at 2 ug/mL, antibody concentration not given, anti-mouse Fc-HRP (Example 16)
T4 sequence (single chain): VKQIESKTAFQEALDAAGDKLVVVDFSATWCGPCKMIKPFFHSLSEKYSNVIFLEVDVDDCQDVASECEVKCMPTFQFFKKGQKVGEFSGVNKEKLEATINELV

TRX-N-His-M1 (human) = TRX-N-His-M1 (human) (UniProt P10599); experiment: ELISA, mutant M1 coated at 2 ug/mL, antibody concentration not given, anti-mouse Fc-HRP (Example 16)
TRX-N-His-M1 (human), sequence (P10599 whole entry): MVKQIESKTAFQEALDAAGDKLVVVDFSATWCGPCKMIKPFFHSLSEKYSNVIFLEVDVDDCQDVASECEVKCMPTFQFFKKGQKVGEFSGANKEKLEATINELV

Peptide_097 (human) [4] = target: T1, Peptide_097 (human); experiment: peptide microarray, 0.2 ug/mL
Peptide_044 (human) [5] = target: T2, Peptide_044 (human); experiment: peptide microarray, 0.2 ug/mL
Peptide_096 (human) [6] = target: T3, Peptide_096 (human); experiment: peptide microarray, 0.2 ug/mL
Peptide_097 (human) [7] = target: T1, Peptide_097 (human); experiment: peptide microarray, 0.04 ug/mL
Peptide_044 (human) [8] = target: T2, Peptide_044 (human); experiment: peptide microarray, 0.04 ug/mL
Peptide_096 (human) [9] = target: T3, Peptide_096 (human); experiment: peptide microarray, 0.04 ug/mL
Peptide_097 (human) [10] = target: T1, Peptide_097 (human); experiment: peptide microarray, 5 ug/mL
Peptide_044 (human) [11] = target: T2, Peptide_044 (human); experiment: peptide microarray, 5 ug/mL
Peptide_096 (human) [12] = target: T3, Peptide_096 (human); experiment: peptide microarray, 5 ug/mL
Peptide_097 (human) [13] = target: T1, Peptide_097 (human); experiment: peptide microarray, 1 ug/mL
Peptide_044 (human) [14] = target: T2, Peptide_044 (human); experiment: peptide microarray, 1 ug/mL
Peptide_096 (human) [15] = target: T3, Peptide_096 (human); experiment: peptide microarray, 1 ug/mL
Peptide_097 (human) [16] = target: T1, Peptide_097 (human); experiment: peptide microarray, 0.0016 ug/mL
Peptide_044 (human) [17] = target: T2, Peptide_044 (human); experiment: peptide microarray, 0.0016 ug/mL
Peptide_096 (human) [18] = target: T3, Peptide_096 (human); experiment: peptide microarray, 0.0016 ug/mL

TRX-N-His-M4 (human), sequence (P10599 whole entry): as above
TRX-N-His-M2 (human), sequence (P10599 whole entry): as above

- OD 490 nm (TRX-N-His-M4 (human)): 0.181
- OD 490 nm (TRX-N-His-M2 (human)): 0.094
- signal (blank-control = 1) (Peptide_097 (human) [1]): 1.08
- signal (blank-control = 1) (Peptide_044 (human) [2]): 1.87
- signal (blank-control = 1) (Peptide_096 (human) [3]): 0.94
- OD 490 nm (M7): 0.761
- OD 490 nm (TRX-N-His-M1 (human)): 0.0424
- signal (blank-control = 1) (Peptide_097 (human) [4]): 1.68
- signal (blank-control = 1) (Peptide_044 (human) [5]): 2.3
- signal (blank-control = 1) (Peptide_096 (human) [6]): 1.37
- signal (blank-control = 1) (Peptide_097 (human) [7]): 1.31
- signal (blank-control = 1) (Peptide_044 (human) [8]): 2.12
- signal (blank-control = 1) (Peptide_096 (human) [9]): 1.44
- signal (blank-control = 1) (Peptide_097 (human) [10]): 2.26
- signal (blank-control = 1) (Peptide_044 (human) [11]): 3.33
- signal (blank-control = 1) (Peptide_096 (human) [12]): 1.9
- signal (blank-control = 1) (Peptide_097 (human) [13]): 2.18
- signal (blank-control = 1) (Peptide_044 (human) [14]): 2.93
- signal (blank-control = 1) (Peptide_096 (human) [15]): 2.04
- signal (blank-control = 1) (Peptide_097 (human) [16]): 0.91
- signal (blank-control = 1) (Peptide_044 (human) [17]): 1.6
- signal (blank-control = 1) (Peptide_096 (human) [18]): 0.82
B1: monoclonal antibody B264 (antibody, mouse IgG1, kappa, V domains shown)
VH: QVQLQQSGAELARPGASVKMSCKASGYTFTSYTMHWVKQRPGQGLEWIGYINPTSDYTNYNQKFKDKATLTADKSSSTAYMQLSSLTSEDSAVYFCASEGGFLYYFDYWGQGTTLTVSS
VL: DVLMTQTPLSLPVSLGDQASISCRSSQSIVHSNGNTYLEWYLQKPGQSPKLLIYKVSNRFSGVPDRFSGSGSGTDFTLKISRVEAEDLGVYYCFQGSHVPYTFGGGTKLEIKR
